This note sets out measurements from article PMC11860134, “PET Imaging of CD206 Macrophages in Bleomycin-Induced Lung Injury Mouse Model” (Pharmaceutics, 2025).

The target of series [1] is T1, murine CD206 (Recombinant mouse MMR/CD206 protein) (Mus musculus, UniProt Q61830).
T1 construct: purchased R&D Systems
T1 sequence (Q61830 19-1388 limits assumed): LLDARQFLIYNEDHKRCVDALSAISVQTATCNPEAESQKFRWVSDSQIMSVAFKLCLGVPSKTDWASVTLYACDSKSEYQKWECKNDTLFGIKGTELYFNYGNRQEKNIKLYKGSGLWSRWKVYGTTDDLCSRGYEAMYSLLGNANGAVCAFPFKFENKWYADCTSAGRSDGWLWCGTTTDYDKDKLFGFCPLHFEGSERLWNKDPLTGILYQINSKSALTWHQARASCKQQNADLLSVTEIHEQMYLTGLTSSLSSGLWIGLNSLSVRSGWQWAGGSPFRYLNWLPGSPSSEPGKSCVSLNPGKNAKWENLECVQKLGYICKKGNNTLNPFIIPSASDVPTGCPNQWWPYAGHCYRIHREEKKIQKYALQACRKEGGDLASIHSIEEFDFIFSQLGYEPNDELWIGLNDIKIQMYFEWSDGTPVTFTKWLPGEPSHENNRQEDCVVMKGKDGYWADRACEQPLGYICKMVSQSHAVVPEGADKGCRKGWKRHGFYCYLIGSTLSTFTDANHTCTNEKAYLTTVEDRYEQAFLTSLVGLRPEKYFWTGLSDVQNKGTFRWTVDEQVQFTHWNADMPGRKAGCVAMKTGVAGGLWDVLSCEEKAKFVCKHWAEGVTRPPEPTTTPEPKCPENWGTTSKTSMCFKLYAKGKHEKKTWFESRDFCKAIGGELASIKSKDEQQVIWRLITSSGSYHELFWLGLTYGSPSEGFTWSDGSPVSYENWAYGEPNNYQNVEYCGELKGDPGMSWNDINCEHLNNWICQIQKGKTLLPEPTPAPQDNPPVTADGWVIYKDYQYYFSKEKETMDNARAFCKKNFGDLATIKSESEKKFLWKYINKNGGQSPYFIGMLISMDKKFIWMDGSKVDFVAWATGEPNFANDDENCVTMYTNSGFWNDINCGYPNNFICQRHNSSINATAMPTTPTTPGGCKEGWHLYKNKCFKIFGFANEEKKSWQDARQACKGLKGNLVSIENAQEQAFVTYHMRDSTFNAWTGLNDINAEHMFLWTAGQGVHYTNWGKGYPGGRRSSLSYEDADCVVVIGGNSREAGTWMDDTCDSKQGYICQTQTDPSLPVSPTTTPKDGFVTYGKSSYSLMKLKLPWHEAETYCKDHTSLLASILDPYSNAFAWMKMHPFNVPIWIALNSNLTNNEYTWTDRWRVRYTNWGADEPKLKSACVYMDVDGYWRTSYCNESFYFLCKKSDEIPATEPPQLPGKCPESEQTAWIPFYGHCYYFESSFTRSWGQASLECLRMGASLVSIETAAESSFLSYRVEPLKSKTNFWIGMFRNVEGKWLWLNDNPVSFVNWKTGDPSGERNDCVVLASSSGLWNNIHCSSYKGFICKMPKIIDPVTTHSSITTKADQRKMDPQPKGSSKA
Description: CD206 plate binding assay. As to conditions: 1 µg CD206 per well, 2 µg (0.1 µCi) tracer, n = 10. The method, then:
The affinity of linear and cyclic RP832c to murine CD206 (Recombinant mouse MMR/CD206 protein, R&D Systems, Minneapolis, MN, USA) protein was tested via plate binding study using blocking and non-blocking groups. 48 h before the experiment 1 µg of CD206 (in 0.1 mL 15 mM Na2CO3, 35 mM NaHCO3) was added to each well of 96-well flat bottom plate. The plate was kept at 4 °C for 48 h. On the day of the study, 5 µg (0.1 mL aqueous solution) of linear or cyclic RP832c was added to each well (n = 10) of each blocking group and was incubated at 37 °C for an hour. Then, 2 µg (0.1 µCi) of [^68Ga]RP832c was added to each well (n = 10 for each group) of both blocking and non-blocking groups. Both groups were incubated at 37 °C for an hour. Wells were rinsed with PBS (pH = 7) three times. Three wells were used as standards. Each well of the blocking and non-blocking groups and the standards were measured via the HIDEX gamma counter (Lablogic, Clair-Mel City, FL, USA). Data were decay corrected, and binding (%) values were calculated according to standards.

Series [2] deals with collagen I and III fibers. Description: Picro Sirius Red (PSR) staining of lung sections, ImageJ quantification. Type of series: in vivo, mouse. As to conditions: lungs of BLM cohort given the tracer. The method, then: Following PET/CT imaging, lungs from all cohorts (bleomycin-induced lung injury model administered with linear or cyclic [^68Ga]Ga-RP832c, healthy mice administered with linear or cyclic [^68Ga]Ga-RP832c, and mice not administered bleomycin) were collected and fixed in 10% formalin. After 48 h of fixation, the lungs were transferred to 70% ethanol and after an additional 24 h, samples were sent for preparation of tissue sections. Tissue sections were prepared by the UAB Pathology Core Research Laboratory, Birmingham, AL, USA. Subsequently, tissue sections were stained with CD206 (Mouse MMR/CD206 Antibody (20 µg/mL, Cat: AF2535, R&D, Minneapolis, MN, USA). The secondary antibody was the Rabbit anti-goat IgG (H+L) HRP (1:2000 dilution, Cat no: 81-1620, Invitrogen, Waltham MA, USA). Picro Sirius Red Staining was conducted using a commercial kit (Picro Sirius Red Stain Kit, ab150681, Abcam, Waltham, MA, USA). Collagen was stained in red while muscle fibers and cytoplasm were stained in yellow.
Picro Sirius Red staining was carried out to detect collagens due to pulmonary fibrosis. The kit is intended for use in the histological visualization of collagen I and III fibers. Picro Sirius Red solution was applied to completely cover the tissue section and then the sample was incubated for 60 min. Slides were rinsed twice in acetic acid solution (0.5%). Slides were rinsed in absolute alcohol and dehydrated in 2 changes in absolute alcohol. The mounting media used was Permount™ Mounting Medium, Pittsburgh, PA, USA. CD206-, PSR-, and H&E-stained samples were imaged using EVOS™ M7000 Imaging System (Invitrogen, Waltham, MA, USA). For IHC semi-quantification, all slides were scored under a light microscope according to the degree of staining (0 points negative for staining, 1 point light yellow, 2 points light brown, and 3 points dark brown) and the range of positivity (1 points 0 to 25%, 2 points 26 to 50%, 3 points 51 to 75%, and 4 points 76 to 100%), and the final scores were summed for analysis.

Consider RWKFGGFKWR [cyclic [^68Ga]Ga-RP832c], for which the “CD206 plate binding %” value in series [1] (blocking: 5 µg linear or cyclic RP832c, 37 °C 1 h before tracer) came to 10.36 ± 0.44%; in series [1] (non-blocking, 37 °C 1 h, gamma counter), 37.60 ± 1.40%. For the same sequence, the figures for the “area % values for PSR staining (ImageJ)” value in series [2] (1 week post bleomycin instillation), in series [2] (2 weeks post bleomycin instillation) and in series [2] (3 weeks post bleomycin instillation) were 0.86 ± 0.44%, 1.28 ± 1.06% and 1.36 ± 0.75%, respectively.
